# Measurements reported in patent publication US8343490B2, “Monoclonal antibody SC104 and derivative thereof specifically binding to a sialyltetraosyl carbohydrate as a potential anti-tumor therapeutic agent” (Cephalon Australia Pty Ltd, priority 2004, dated 2013).
# “And” between values parts separate entries of the source, which are not always exact repeats. Equal entries are not always repeated.
# B1: SC104: mouse IgG1 monoclonal antibody specific for a sialyltetraosyl carbohydrate, raised by immunisation with colorectal cancer cell lines (antibody, V domains shown)
# VH: DVQLQESGPDLVKPSQSLSLTCTVTGYSITSGYSWHWVRQFPGNKMEWMGHIHFSGRPTYNPSLSSRISITRDTSKNQFLLQLKFVTTEDTSTYFCARKGKGSDDGLNYWGQGISVTVSS
# VL: ENVLTQSPVIMSASPGEKVTMTCSASSSLSYIHWYQQKSRTSPKLWIYDTSNLASGVPGRFSGSGSGNSYSLTISSMEAEDVATYYCFQGSEYPLTFGGGTKLEMT
# Tests used:
# [1] = test system: colorectal tumour extranuclear membranes; test: ELISA on extranuclear membranes of colorectal tumour; format: binding; conditions: one line per patient (1-7)
# Description: (§1) • Tumour and normal membrane extract binding. Extranuclear extractions of colorectal and normal colonic membranes were produced and binding of SC104 was assayed by ELISA. Results
# [2] = test system: freshly disaggregated colorectal tumour cells; test: Primary tumour binding, flow cytometry
# Description: • Primary tumour binding. Tumour specimens were obtained at the time of colorectal cancer resection. Specimens were finely minced and disaggregated with 0.05% collagenase (Type IV, Boehringer Mannheim, Lewes, UK) for 20 min at 37° C. The tumour cell suspension was removed and washed 3 times in Hanks balanced salt solution (Gibco BRL, Paisley, UK). Fresh collagenase was added to the remaining tissue and it was reincubated for a further 20 min. This procedure was repeated twice before combining cells from all dissociations and resuspending them in Dulbecco's medium containing 20% fetal calf serum (Gibco). Cells were incubated for 1 hr at 4° C. with SC104 mab (1 μg). […] Normal mouse immunoglobulin was used as a negative control and this fluorescence was subtracted from the fluorescence obtained with SC104. […] Results are expressed as mean linear fluorescence (MLF). […] The percentage of epithelial cells is measured by staining of cytokeratin mab Cam 5.2. was only 22±13% (range 10-60). However, following forward angle light scatter gating to selectively analyse cells in the malignant cell size range 79±4% (range 69-86) of the cells analysed were epithelial. […] The percentage of leukocytes as measured by staining with the anti-CD45 mab F-10-89 in the total nucleate population was 74±16 (range 40-90). […]
# [3] = Blood group antigen ELISA, H type I; format: binding
# Description: (§2) The Lewis ^y hapten and the type I and type II H blood group antigen (Sigma, Poole, Dorset) were dried microtitre plates by overnight incubation at 37° C. Binding of SC104 mab was assayed by ELISA as described above.
# [4] = test system: normal colonic extranuclear membranes; test: ELISA on extranuclear membranes of normal colon; format: binding; conditions: one line per patient (1-7)
# Description: as §1
# C170 xenografts = test: C170 xenograft therapeutic model; format: in vivo, nude mice; conditions: administered therapeutically, after C170 xenograft implantation; FIG. 27
# Description: Therapeutic model. The colorectal tumour cell line, C170 was maintained in serial passage in nude mice. For therapy the mice were sacrificed and the tumours excised. The tumour was finely minced and […] pieces were implanted, under anaesthetic, subcutaneously into 30 male mice which had been randomly allocated to 4 experimental groups.
# Mice were explanted with 3 mm^3 pieces of C170 xenografts. […] On the same days mice were also injected intraperitonealy with 0.2 mg of SC104 mab. Control mice received either SC104 alone or control mouse IgG antibody with 5FU/leucovorin. Tumour size was measured by callipers and tumour cross sectional area calculated on days 12, 16, 19 and 23.
# [5] = Blood group antigen ELISA, H type II; format: binding
# Description: as §2
molecule,measurement,setting,value
B1,Binding of SC104 mab to extranuclear membranes: Colorectal Tumour,[1],0.221 and 0.278 and 0.196 and 0.281 and 0.102 and 0.001 and 0.437
same,freshly disaggregated colorectal tumour cells bound strongly,[2]; FIG. 3,> 80%
same,mean antigen density,[2]; freshly disaggregated colorectal tumour cells,4×10^5 antigens per cell
same,Binding to blood group antigens by ELISA: H blood group Type I,[3],0.087 OD 405 nm
same,Binding of SC104 mab to extranuclear membranes: Normal colon,[4],0.217 and 0.042 and 0.066 and 0.035 and 0.139 and 0.001 and 0.068
same,inhibition of tumour growth,C170 xenografts,neither 5FU nor SC104 alone significantly inhibited growth
same,Binding to blood group antigens by ELISA: H blood group Type II,[5],0.076 OD 405 nm
